Substitutions are numbered along the chain they refer to. Names may count otherwise. Read-outs that look alike come from different tables or passages of the source.

Substrate in this data set: O=[N+]([O-])c1ccc(O[C@@H]2O[C@H](CO)[C@@H](O)[C@H](O)[C@H]2O)cc1
Description: purified protein.

Setting [1] is: average of two wild-type replicates (WT-1 2.4 mM, WT-2 5.3 ± 0.4 mM).
The mark [2] stands for this setting: error exceeds the value, nearly inactive.
Setting [3] is: poorly determined fit: large printed errors.

B1: β-glucosidase B (BglB) (Paenibacillus polymyxa) (protein)
chain: MSENTFIFPATFMWGTSTSSYQIEGGTDEGGRTPSIWDTFCQIPGKVIGGDCGDVACDHFHHFKEDVQLMKQLGFLHYRFSVAWPRIMPAAGIINEEGLLFYEHLLDEIELAGLIPMLTLYHWDLPQWIEDEGGWTQRETIQHFKTYASVIMDRFGERINWWNTINEPYCASILGYGTGEHAPGHENWREAFTAAHHILMCHGIASNLHKEKGLTGKIGITLNMEHVDAASERPEDVAAAIRRDGFINRWFAEPLFNGKYPEDMVEWYGTYLNGLDFVQPGDMELIQQPGDFLGINYYTRSIIRSTNDASLLQVEQVHMEEPVTDMGWEIHPESFYKLLTRIEKDFSKGLPILITENGAAMRDELVNGQIEDTGRHGYIEEHLKACHRFIEEGGQLKGYFVWSFLDNFEWAWGYSKRFGIVHINYETQERTPKQSALWFKQMMAKNGF
B1: under setting [1], the Michaelis-Menten constant (Km) stood at 3.9 ± 0.3 mM and the kcat is 12.4 ± 0.158 s⁻¹.

B2: β-glucosidase B (BglB) (Paenibacillus polymyxa; N163E) (protein)
chain: B1 chain with N163E
Consider B2, for which, for the setting “error exceeds the value”, the Michaelis constant (Km) is 21.4 ± 52.4 mM and the kcat came out at 1.02 ± 0.483 s⁻¹.

B3: β-glucosidase B (BglB) (Paenibacillus polymyxa; E409W) (protein)
chain: B1 chain with E409W
As to B3, under setting [2], the Km was found to be 2.5 ± 3.1 mM and the kcat is 0.0017 ± 0.0017 s⁻¹.

B4: β-glucosidase B (BglB) (Paenibacillus polymyxa; L174M) (protein)
chain: B1 chain with L174M
For the protein B4, the Km is 4.3 ± 0.3 mM and the kcat stood at 14.79 ± 0.405 s⁻¹.

B5: β-glucosidase B (BglB) (Paenibacillus polymyxa; M224L) (protein)
chain: B1 chain with M224L
In the case of B5, the Km was 4.2 mM and the kcat is 10.51 s⁻¹.

B6: β-glucosidase B (BglB) (Paenibacillus polymyxa; F418M) (protein)
chain: B1 chain with F418M
Take B6: under setting [3], the Km was determined as 29.6 ± 20.5 mM and the kcat turned out to be 0.37 ± 0.572 s⁻¹.

B7: β-glucosidase B (BglB) (Paenibacillus polymyxa; H181M) (protein)
chain: B1 chain with H181M
Consider B7, for which the Michaelis constant (Km) amounted to 5.6 ± 1.9 mM and the kcat is 11.98 ± 1.807 s⁻¹.

The term Km denotes the concentration of substrate that gives half-maximal velocity. Usually kcat stands for the number of substrate molecules converted per active site and unit of time at saturation.

These data come from doi:10.1101/2020.11.17.387829v1.
